The values below come from publication PMC12859505.

Test [1] has as its target HA- and RLuc8-tagged CXCR5 (HA-CXCR5-Rluc8) in ΔQ-GRK HEK293 cells (GRK2/3/5/6 deleted; not phosphorylated by GRKs) (UniProt P32302).
Test [2] deals with HA- and RLuc8-tagged CXCR5 (HA-CXCR5-Rluc8), CXCL13-stimulated, in cells that express GRKs (GRK-phosphorylated) (UniProt P32302).

B1: CXCL13 (ligand)
chain: VLEVYYTSLRCRCVQESSVFIPRRFIDRIQILPRGNGCPRKEIIVWKKNKSIVCVDPQAEWIQRMMEVLRKRSSSTLPVPVFKRKIP
Consider B1, for which the potency (EC50) of CXCL13 (1-100 nM) for G protein activation by FLAG-CXCR5 in ΔQ-GRK HEK293 cells: loss of BRET between Gαi1-Rluc8 and Gβ3γ9-GFP2 (TRUEPATH), area under the curve in test [1] stood at 0.85 nM. This molecule came in with a potency (EC50) of CXCL13 (1-100 nM) for G protein activation by FLAG-CXCR5 in WT HEK293 cells: loss of BRET between Gαi1-Rluc8 and Gβ3γ9-GFP2 (TRUEPATH), area under the curve in test [2] of 1 nM.
